Target: T1, HA-tagged human TGF-β type I receptor (TβRI-HA) (human, UniProt P36897 34-503)
T1 sequence (looked up): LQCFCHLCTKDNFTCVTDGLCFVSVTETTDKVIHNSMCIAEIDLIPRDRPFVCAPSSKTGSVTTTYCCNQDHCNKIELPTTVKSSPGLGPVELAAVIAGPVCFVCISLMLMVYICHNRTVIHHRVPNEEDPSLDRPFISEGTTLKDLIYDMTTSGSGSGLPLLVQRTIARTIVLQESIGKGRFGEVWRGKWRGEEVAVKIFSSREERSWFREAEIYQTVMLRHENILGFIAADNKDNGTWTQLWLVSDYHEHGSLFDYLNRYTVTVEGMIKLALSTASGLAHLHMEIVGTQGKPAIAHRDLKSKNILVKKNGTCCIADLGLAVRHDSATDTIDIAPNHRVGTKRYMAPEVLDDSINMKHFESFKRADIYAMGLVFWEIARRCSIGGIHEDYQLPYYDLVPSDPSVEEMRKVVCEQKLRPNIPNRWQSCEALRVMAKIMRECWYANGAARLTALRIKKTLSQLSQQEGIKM
Experiment: antibody-mediated immunofluorescence copatching

stoichiometry N: 2
B1: myc-tagged human TGF-β type I receptor (TβRI-myc) (receptor, UniProt P36897 34-503, looked up)
chain: LQCFCHLCTKDNFTCVTDGLCFVSVTETTDKVIHNSMCIAEIDLIPRDRPFVCAPSSKTGSVTTTYCCNQDHCNKIELPTTVKSSPGLGPVELAAVIAGPVCFVCISLMLMVYICHNRTVIHHRVPNEEDPSLDRPFISEGTTLKDLIYDMTTSGSGSGLPLLVQRTIARTIVLQESIGKGRFGEVWRGKWRGEEVAVKIFSSREERSWFREAEIYQTVMLRHENILGFIAADNKDNGTWTQLWLVSDYHEHGSLFDYLNRYTVTVEGMIKLALSTASGLAHLHMEIVGTQGKPAIAHRDLKSKNILVKKNGTCCIADLGLAVRHDSATDTIDIAPNHRVGTKRYMAPEVLDDSINMKHFESFKRADIYAMGLVFWEIARRCSIGGIHEDYQLPYYDLVPSDPSVEEMRKVVCEQKLRPNIPNRWQSCEALRVMAKIMRECWYANGAARLTALRIKKTLSQLSQQEGIKM

Reference: publication PMC2141740 (The Journal of Cell Biology, 1998)
